Measured values reported in the Human Domainome abundance scans (Beltran et al. 2025).
± gives the uncertainty stated by the source.

B1: Protein C-ets-1, residues 55 to 135; numbered along this chain, P14921 (parent)
chain: GFTKEQQRLGIPKDPRQWTETHVRDWVMWAVNEFSLKGVDFQKFCMNGAALCALGKDCFLELAPDFVGDILWEHLEILQKE

Variants of: B1
Experiment: abundance fitness (aPCA) (normalised: wild type 0, dead -1); higher = more abundant; growth selection in yeast, the domain comes from the species named
Settings: Homo sapiens

Variant	abundance fitness
S35Q	0.062 ± 0.062
F34H	-0.084 ± 0.059
K4H	-0.148 ± 0.076
N47G	-0.185 ± 0.038
Q17Y	-0.154 ± 0.14
F66K	0.053 ± 0.076
N32Y	-0.327 ± 0.077
V31E	-0.19 ± 0.053
P64F	-0.896 ± 0.22
W29R	-0.489 ± 0.031
H74M	-0.271 ± 0.09
Q7A	-0.055 ± 0.031
H74K	-0.273 ± 0.13
D57I	-0.185 ± 0.09
D69E	-0.035 ± 0.062
N32L	-0.179 ± 0.039
G48P	-1.02 ± 0.11
R24V	-0.059 ± 0.043
R8Y	-0.212 ± 0.066
A63L	-0.016 ± 0.032
D40R	-0.245 ± 0.038
K56F	-0.865 ± 0.18
S35D	0.017 ± 0.058
D40W	-0.77 ± 0.088

Variant	abundance fitness
A63N	-0.399 ± 0.17
E73F	-0.251 ± 0.059
G38V	-0.476 ± 0.034
F59G	-0.95 ± 0.054
N32R	0.019 ± 0.027
W26K	-0.727 ± 0.066
K13M	-0.086 ± 0.11
I70Q	-0.035 ± 0.059
H22K	-1.07 ± 0.27
S35V	-0.381 ± 0.035
D14E	-0.172 ± 0.04
D25G	-0.038 ± 0.027
D65H	-0.09 ± 0.076
T3Y	-0.206 ± 0.1
A53G	-0.028 ± 0.023
I77E	-0.031 ± 0.067
F59P	-0.984 ± 0.078
F41P	0.059 ± 0.045
D57Q	-0.073 ± 0.045
H22W	-0.904 ± 0.1
H74A	-0.135 ± 0.066
W72C	-0.62 ± 0.067
D57T	-0.058 ± 0.039
G55R	-0.04 ± 0.029

Variant	abundance fitness
R16Y	-0.049 ± 0.11
C45Y	-0.032 ± 0.045
R16S	-0.096 ± 0.041
W72A	-0.52 ± 0.053
P64T	-0.194 ± 0.059
F34S	-0.52 ± 0.033
L54Q	-0.299 ± 0.056
L54M	-0.022 ± 0.05
T19N	-0.16 ± 0.084
W72H	-0.361 ± 0.084
L78K	-0.649 ± 0.079
C52Y	-0.472 ± 0.065
E76C	-0.092 ± 0.051
F34T	-0.743 ± 0.067
T21Y	0.043 ± 0.12
V27G	-0.739 ± 0.037
G10R	-0.056 ± 0.033
E73K	0.004 ± 0.075
C52H	-0.534 ± 0.079
T3M	-0.028 ± 0.072
K43F	-0.494 ± 0.058
E5R	-0.132 ± 0.035
V23D	-0.906 ± 0.13
T19Q	-0.228 ± 0.068

Variant	abundance fitness
D57Y	-0.326 ± 0.1
G1T	-0.262 ± 0.17
F2I	-0.355 ± 0.11
D57L	-0.216 ± 0.033
D40V	-0.209 ± 0.047
T21Q	0.002 ± 0.053
L62A	-0.434 ± 0.047
I70F	-0.17 ± 0.055
D57K	0.017 ± 0.066
I77K	0.052 ± 0.094
G1V	-0.108 ± 0.055
P64G	0.032 ± 0.041
D14C	-0.152 ± 0.061
W26G	-0.895 ± 0.038
A53M	-0.09 ± 0.052
E20W	-0.463 ± 0.045
I70W	-0.398 ± 0.048
F34L	-0.276 ± 0.028
W18E	-0.814 ± 0.086
E33W	-0.179 ± 0.038
K56S	-0.7 ± 0.055
E20G	-0.264 ± 0.023
V39Q	-0.683 ± 0.12
I77N	0.17 ± 0.12

Variant	abundance fitness
F41W	-0.1 ± 0.046
A30H	-0.107 ± 0.098
E61R	-0.033 ± 0.041
H74P	-0.794 ± 0.068
A49E	0.02 ± 0.03
G38H	0 ± 0.082
K43R	-0.007 ± 0.036
L9M	-0.066 ± 0.057
I77L	0.053 ± 0.041
L62Y	-0.141 ± 0.1
G68W	-0.655 ± 0.087
Q42F	-0.664 ± 0.11
C52Q	-0.494 ± 0.062
I11D	-0.647 ± 0.1
K37C	-0.128 ± 0.049
F44C	-1.01 ± 0.2
P12A	-0.46 ± 0.05
H74Q	-0.02 ± 0.048
K4Q	-0.031 ± 0.054
N47H	-0.152 ± 0.081
Q6N	-0.136 ± 0.2
K56T	-0.878 ± 0.098
E73T	-0.19 ± 0.07
D69G	-0.059 ± 0.031

Variant	abundance fitness
I70K	-0.065 ± 0.066
F34N	-0.244 ± 0.069
W18C	-0.785 ± 0.13
C52F	-0.325 ± 0.056
K37R	-0.076 ± 0.027
A53D	0.067 ± 0.048
W26A	-0.845 ± 0.041
E61D	-0.013 ± 0.05
G68A	-0.116 ± 0.032
R8F	-0.091 ± 0.074
S35F	-0.413 ± 0.063
Q6S	-0.005 ± 0.04
W29E	-0.561 ± 0.068
D40Y	-0.651 ± 0.11
K56P	-0.493 ± 0.043
V67S	-0.002 ± 0.066
F41N	-0.039 ± 0.11
D69K	-0.057 ± 0.067
R8K	-0.062 ± 0.061
T21S	-0.016 ± 0.032
F41E	-0.031 ± 0.052
E5H	-0.087 ± 0.095
R16L	-0.025 ± 0.046
E5W	-0.186 ± 0.066

Variant	abundance fitness
P15I	-0.064 ± 0.075
W29N	-0.586 ± 0.11
K56C	-0.814 ± 0.11
D14K	-0.547 ± 0.071
D25Y	-0.027 ± 0.048
E5D	-0.216 ± 0.085
S35W	-0.559 ± 0.05
T21I	-0.143 ± 0.056
D57C	-0.106 ± 0.065
F41I	0.022 ± 0.055
F44I	-0.38 ± 0.079
F44N	-1.01 ± 0.47
I70C	-0.088 ± 0.059
I70N	-0.546 ± 0.096
S35P	-0.625 ± 0.048
K37A	-0.046 ± 0.033
E33C	-0.132 ± 0.058
P15A	-0.351 ± 0.052
P12K	-0.419 ± 0.14
A30N	-0.108 ± 0.092
A63Y	-0.299 ± 0.11
Q7V	-0.028 ± 0.033
V27S	-0.841 ± 0.046
